# Molecular target: native bovine brain calmodulin (bovine, UniProt P62157 2-149)
# Test: tryptophan fluorescence of 5 uM MLCKp (excitation 280 nm) in 10 mM MES pH 6.5, one equivalent of calmodulin, no metals
binder,measurement,value
Ac-RRKWQKTGHAVRAIGRL-NH2 (Its tryptophan is the fluorescent probe of the assay; also called calmodulin ligand peptide; the ligand),binding result,binds
